Broadly, the Km is the substrate concentration at which the rate is half of its maximum.

Substrate in this data set: NCCCNCCCCNCCCN
In words: purified protein, by the assay type. The conditions noted are these: other: substrate, 2.5 nM hSMOX; 11.3 °C.

“And” between values parts separate entries of the source, which are not always exact repeats. Identical values can stand only once.

B1: hSMOX (Homo sapiens) (protein)
chain: MQSCESSGDSADDPLSRGLRRRGQPRVVVIGAGLAGLAAAKALLEQGFTDVTVLEASSHIGGRVQSVKLGHATFELGATWIHGSHGNPIYHLAEANGLLEETTDGERSVGRISLYSKNGVACYLTNHGRRIPKDVVEEFSDLYNEVYNLTQEFFRHDKPVNAESQNSVGVFTREEVRNRIRNDPDDPEATKRLKLAMIQQYLKVESCESSSHSMDEVSLSAFGEWTEIPGAHHIIPSGFMRVVELLAEGIPAHVIQLGKPVRCIHWDQASARPRGPEIEPRGEGDHNHDTGEGGQGGEEPRGGRWDEDEQWSVVVECEDCELIPADHVIVTVSLGVLKRQYTSFFRPGLPTEKVAAIHRLGIGTTDKIFLEFEEPFWGPECNSLQFVWEDEAESHTLTYPPELWYRKICGFDVLYPPERYGHVLSGWICGEEALVMEKCDDEAVAEICTEMLRQFTGNPNIPKPRRILRSAWGSNPYFRGSYSYTQVGSSGADVEKLAKPLPYTESSKTAPMQVLFSGEATHRKYYSTTHGALLSGQREAARLIEMYRDLFQQGT
With B1, the Km is 34 µM and 33.9 ± 2.7 µM.
